Data: patent publication US20080279850A1

Columns and labels:
[1] = molecular target: T1, CD37 (human) (UniProt P11049)
T1 sequence: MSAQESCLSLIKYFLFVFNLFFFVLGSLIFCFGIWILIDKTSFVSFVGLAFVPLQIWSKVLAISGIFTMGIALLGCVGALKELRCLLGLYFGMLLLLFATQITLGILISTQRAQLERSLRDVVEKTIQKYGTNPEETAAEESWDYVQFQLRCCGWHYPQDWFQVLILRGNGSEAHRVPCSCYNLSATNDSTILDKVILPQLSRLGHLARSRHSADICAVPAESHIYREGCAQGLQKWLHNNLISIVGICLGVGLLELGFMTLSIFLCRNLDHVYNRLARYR

[2] = molecular target: T1, CD37 (human); remark: listed apart in the source

Substance	Annexin V Positive, Bjab cells, 20 µg/mL SMIP with goat anti-human IgG crosslinking (Annexin V Positive) [1]	Annexin V-PI staining of Ramos cells after 24 hours [2] [%]
TRU-016 [G28-1 scFv VH11S (SSC-P)H WCH2 WCH3] (Fc fusion)	30.6	
TRU-016, protein A purified (unfractionated) (Fc fusion)		32.8
